Measurements from the supplement of paper PMC10724198.

Experiments:
Saccharomyces cerevisiae [1] = assay: protein stability index of tFT-peptide fusion in deletion strain of DAS1 (PSI (0-1 scale)); higher = more stable (slower turnover)
Procedure: (§1)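 MPS profiling in S. cerevisiae of two library types built from selected 12-aa C-degron peptides (IN1, IN2, LN1, LN3, VN2, R1-R5, W1-W3, Atg1 and Rpa12 C-termini): saturation mutagenesis libraries and C-terminal +1 capping libraries (13 aa). Each peptide is fused to the C-terminus of a sfGFP-mCherry timer, after a GGGS linker. Cells are FACS-sorted into 8 mCherry/sfGFP bins and sequenced. PSI runs from 0 (unstable) to 1 (stable), measured once in wild type and in the das1Δ or doa10Δ background.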

Saccharomyces cerevisiae [2] = assay: protein stability index of tFT-peptide fusion in wild type (PSI (0-1 scale)); higher = more stable (slower turnover); details: genetic background: wild type
Procedure: as §1
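Throughout, for protein stability index of tFT-peptide fusion in deletion strain of DAS1: PSI is a weighted mean of each variant's read distribution over the sorted stability bins, computed only for variants having over 10 reads in total.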
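Throughout, for protein stability index of tFT-peptide fusion in wild type: PSI derived as read-weighted mean over the 8 sorting bins, only variants exceeding 10 total reads kept, mCherry placed adjacent to the peptide and sfGFP distal.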

Row | Sequence | protein stability index (Saccharomyces cerevisiae [1]) | protein stability index (Saccharomyces cerevisiae [2])
1 | KKHKKGQKQKIT | 0.598 | 0.263
2 | KKHKKGQKQKIY | 0.594 | 0.255
3 | KKHKKGQKQKRN | 0.575 | 0.5
4 | KKHKKGQKQPIN | 0.587 | 0.637
5 | KKHKKGQKSKIN | 0.562 | 0.548
6 | KKHKKGQMQKIN | 0.626 | 0.209
7 | KKHKKGQRQKIN | 0.599 | 0.0819
8 | KKHKKGQWQKIN | 0.556 | 0.106
9 | KKHKKYQKQKIN | 0.587 | 0.0518
10 | KKHKPGQKQKIN | 0.607 | 0.143
11 | KKHKWGQKQKIN | 0.589 | 0.05
12 | KKHKYGQKQKIN | 0.613 | 0.067
13 | KKHLKGQKQKIN | 0.608 | 0.0828
14 | KKHQKGQKQKIN | 0.597 | 0.0868
15 | KNHKKGQKQKIN | 0.61 | 0.121
16 | KSMRWTFRYWVN | 0.578 | 0.0597
17 | LAVYLSCVACIN | 0.0886 | 0.0214
18 | LCVYLSCVACIN | 0.0253 | 0.0138
19 | LFILRQKMNHQN | 0.692 | 0.126
20 | LKHLRQKMNHQN | 0.712 | 0.175
21 | LKILAQKMNHQN | 0.667 | 0.229
22 | LKILCQKMNHQN | 0.71 | 0.246
23 | LKILRCKMNHQN | 0.625 | 0.17
24 | LKILRQKMNHQK | 0.682 | 0.666
25 | LKILRQKMNHQNA | 0.681 | 0.658

Row | Sequence | protein stability index (Saccharomyces cerevisiae [1]) | protein stability index (Saccharomyces cerevisiae [2])
26 | LKILRQKMNHQND | 0.724 | 0.675
27 | LKILRQKMNHQNP | 0.688 | 0.678
28 | LKILRQKMNHQNT | 0.692 | 0.671
29 | LKILRQKMNHQR | 0.669 | 0.67
30 | LKILRQKMNMQN | 0.641 | 0.281
31 | LKILRQVMNHQN | 0.663 | 0.315
32 | LKIMRQKMNHQN | 0.664 | 0.23
33 | LKLLRQKMNHQN | 0.682 | 0.208
34 | LKVLRQKMNHQN | 0.675 | 0.177
35 | LMVYLSCVACIN | 0.0607 | 0.0204
36 | LNILRQKMNHQN | 0.622 | 0.121
37 | LPILRQKMNHQN | 0.683 | 0.125
38 | LPVYLSCVACIN | 0.19 | 0.055
39 | LTILRQKMNHQN | 0.679 | 0.123
40 | LVLYLSCVACIN | 0.0273 | 0.0137
41 | LVQYLSCVACIN | 0.18 | 0.0238
42 | LVVCLSCVACIN | 0.034 | 0.0139
43 | LVVGLSCVACIN | 0.215 | 0.159
44 | LVVMLSCVACIN | 0.0276 | 0.0128
45 | LVVYLLCVACIN | 0.0739 | 0.0159
46 | LVVYLSCAACIN | 0.166 | 0.0321
47 | LVVYLSCEACIN | 0.0235 | 0.0807
48 | LVVYLSCKACIN | 0.0225 | 0.0136
49 | LVVYLSCVACAN | 0.0251 | 0.0124
